A short description of this data set: soluble on expression in E. coli; label from the status in PepcDB or PDB records.
As to “GPGSMPPPAPPALEKKTAAGVEVDLTKMVLDTSSFLRASAQRPSMRYPSRASVSNSAFISAQEYDDLRARYSQAKRELLKVSDIQKDLDFARFELTRSQEEMKLLRASNHNLKNEVEEYVQRAEKEHKARMSLEAKMSAEGATRTEEIEFLKKTIDELRAENAKRLDYMTQQQEDEFQARLQSMREELAGAAEELARLTAEAAQAQKARELSESKLTAALTDLEKSRAVVDDCKARIDALQKECHALEQQHRDFVQQQERQNAAYLEEQKALNEERVHQVAESKNAAIAEMQEELHLWKEKTKTTAEELAAARHAASQLQDDVKQLTADRAKEVRRLAEEHRLALCELQLQMEAAIREARGSKTSLEEEAQSLRRQLAQVSTELSTVAGVLAQRERQLAKAEEELLRTKDRCVAAEQENAQLASDAQLNAEAADEAAARVERLMRQNSDMEEEFSKDLREAKDRIRTLEATLMQSKGELSALRKEQIKSADDGLAATRDLRAQAEALMEECTALKAQAGERRRLEEMARDYCQRFEAERTKVGTLEAELSAAVGRCTAVEAKLEELSRRVISQAVSRSPMQTLHPNATAASLSCHGKHRSVSSGQSYAPTGGSSMKRARTEDARVFAISGFDGNDVLLAVKQLPNVAIAECKSNMPVPSNLTHLITNGQLTIKLLTALVRGCWVLPESYVVDSLKEQTWLREEDYGFQHEEPPLLKKRIALTEAFMACKHYSTASLLLKEGGAILVDDPEQADILLCTNAEARSTQNGWNWEKMVEIIYPLKIQ”, the “soluble on expression in E. coli” value was “soluble”.

Take “GPGSMQISPPFCGCLSEMYARSLVKQGAFSCFRSCVRVGSVAIIGGEAHMFKQLYKRDEKLRLYRSLIKGASRFPLRSRRDIVTEEVRSSFRHPLNDSLTNEEVDRKLVLGWERAEAIKTYAQNMYWFHSRDEVSKEMMHHSLERDRQRVREMERCNTVGAAPRKTPEVTEFKSSMYNVHPDYYEKIGQKPLTHTRDIWRARGQYGSDVGGPRQKFFVRRFKALFPQGW”: the “soluble on expression in E. coli” value is “not soluble”.

In the case of “GPGSMRALTFRSSLCAGRTAVGAMCFGRLWASSTSATEGSEKQNVTEDSETVSVAPVSPEAYAKLEKELSDAKERIAELKKEVLYRAADAENARRIGSEDVTKAKAYGITSFGKDMLDVVDTLERGLEAITKLPQAEVEGHKTLSSIHTGIKLSLKLLLNNLAKHGIEKLDVAVGAKFDPNFHDALLKVPPTAEAPPGHISTVLKTGYKIQDRVLRASQVGVASDD”, the “soluble on expression in E. coli” value is recorded as “not soluble”.

For the sequence “GPGSMRGKRFATPTGQPGMRQGGYTQLHAVSASTSPGRRPTAKHCAPSASQKELFTSQALSRPRPTEAHALSSSTPERRFQAVQRSSTQSSMPSTSVHHMLNELVDLSHSIAALLEQGQVLSLTAAPSAADRQQEASLKTQEIERIVRRVEAHFVDRIQSLETLNASLSEEVRQLRGALATQRTNGAEGRANVVQDIRGGDLQEDSKTLDACERASWDEPGNGAASSEVEHLRRVLMAEKRQRLRVEEQTQSLTEQHAKVVGTLERRLKKQEEQLYDLIAAIDRGYGGGSVTTSASPTRCTERGSSHRLPTPRHLLRQQLAQHQQTQRALQQYKENLRLEPPSPAGSDEVSATMKELGLDDVRRTLELIRSSKPLTVQEHHHDQEETHTAPAVCSPPHTARDGPAVVHSPRVCSQVPPPAADRAACTSGTEVDEITAFLENITKELESLDSQ”, the “soluble on expression in E. coli” value is given as “soluble”.

With “GPGSMRLVDLSLPLYDGMPVYDGDPPVHVTKVCTREKDGWEVRHLQMGSHTGTHVDAPAHMHEDGSNLDEVPLTRFCGPAVVVKVADSSFPPNKGLLFYEAVPADCVPRIVAANAPFVGGPLEEKAERLLLGCGIITYTGLVNVEQLIGESFTFYGLPLRIRGGDGSPVRAVAVMDDK”, the “soluble on expression in E. coli” value was “soluble”.

For the sequence “GPGSMSAETLACTYAALMLSDAGLPTSAENIAAAVKAAGVEMRPTLPIIFARFLEKKSVETLMAAAAAQAPTAASAPSPAAGAASAAAAGGKVEDKKKDEPEEEGDDDMGFGLFD”, the “soluble on expression in E. coli” value is on record as “soluble”.

“GPGSMSNSGCGLPGDVDPDLPLTPDGVTYHVACSSERLADRIILVGDPDRVKMVSTYLDAGSIVYEASHREIKVVTGAYHGVPVTVLSTGMGTDNVEIVMNEVHILKEYDTQKRRWRARVGDDTPADPLETPFDPSRVKLIRVGTCGTPNDAVQIGCLAITRYAVGMDNTCQYYDAPAVNHTVDVKEVLAKVQATSLGKVQVYATKAAPAITQGLVDACTALNRKVGVSEQQPYYVGTTCSGSGFYGCQGRSVGRFRGHLTVPHLTEELGDLRFNVSEGEQRVANIEMENSALCYLSNLLGYQAGTVCVVIARRSRTNRAFATPEQLAKGLSHAITIALETLIKE”: the “soluble on expression in E. coli” value was “not soluble”.

Regarding “GPGSMSSSPNPMGAGTASATPKSTGGPEASPGSVRRSTLYAVLNVSHTATLEEITAAYRKLALVYHPDRPNGLQWKFQEIQRAYEVLSQKDARAKYDILLRGKLAVKNFKRPPPLESVLQPVYALLADGAFYEFEAASSKLKCSFHYGDGIQFNGDCGSFIGLAGDGFIYWTISGRGFASRLCKAGSTFALSSVRVMYRSNMGLAKMPLKRSSLHSSHTCRPAGSSGDKRAVRGSTGDAGCSERAKSTTGARAAKMSEADRIKKALLNKERSRNLKRRMETLKEEEIEARNSLQQDLWGQFSSLHTTAEVAFRCTLQGVAVPVEMALWMGYKSPEEVMLRSSGACSSLFIAEQVSLQTSSLWVDPLQSDYFNDDEMLREGCDGNKEDRKHCTSNGRDVTARHKPDSADSSPCSSQSSPASDGAPDGDACRGRSATASGTHSPILHRLNNGATAVTGASDGAEVAKKE”, the “soluble on expression in E. coli” value is given as “not soluble”.

For “GPGSMSSTQTTSVFFTDVPLFVEERSLRKHFESVGHITDFRLLGPPVGKDFRYGFAEYLDSTSAEEAIARLNGTSFGGRPMKVMSAAATRGRKRQRQQNASHQQQPAPRGGMTFPRGYTDPVLGRDDTSIFECLQGMQQSDAYEAVEQLRVLVLERKNEARKLLENNPALRLAVVMILQHAGRLPFGPLPPEAIQHGGIRVDAPVPAAPAEGEGEKVEPPREQNDEIIEILSKLSEEEVERIVSMTDEDLNRIPDVSQRQQIGVLRERLLELAADLE”, the “soluble on expression in E. coli” value is “soluble”.

Take “GPGSMSYHGPNREGLGEDLEEAEEAFIDLEDPNIEILDEAALPEEDGDDASDVVDNHAGMDVQDRGNEEEGEGLHLGVEVEDLNAAPDYEPEHDDAFATFVAPAKKPLHAIAVHPQNERIFAVGGEGEEVYILEMDHAGKEPALKATLTGHTDTVSLLSFSPNGQWLASGSLDSSVAVWSTETWERKHTLGDLYGEIMTLLWHPSSLILAAGADDAQAAMWNVVKGTLIMYFVGHRGAVTCTAWSPDVKKLVTGSSDGTVAVFNPKTGDQELCISKDLSPDNAGITALQFVNADQCVVGCEDGTLHVISLRSGKVATHFEDLHEQAIESLAINRSSLLLLTASCDCRVIVWNVADFSPRATVEVGESVIPALWSHSNLIAAGCSDGNIRVWDGRSSAQDPLALLMGHRRMVLGLVTTSTVLASTSDDGTAKFYRFAETFR”: the “soluble on expression in E. coli” value is on record as “soluble”.

Consider “GPGSMTNFSPAKCEMDALFLTSAGTDGHPLAQPFWSSSRSSLPTFDAHRRGTARGRLQNPALIDSIRRSEGSRVGQDTCRYMQAAAASSQKAVHQLLSRLQTYRSFKPFLSPPAPYRDNLFTDDRGFSNFHGPSYGRGSTATVSRDQLWQMVDGILDTSVAQLLQHNAEGHFIMTLQSTLGLEAPISTAKSGTVIESRKAATPAIKGGATELASEERTPAGGPRQPLPPALQKTAVMSSFAPASALADRWALDHPSATAAAIEEQHHAWAKFEQQRQRTSRCFYLQAMQEQLDVLQAEQARDAADTTHSPPSRGDRSHRYLVDMHSPSDSEDAVAKTEEERQQALWHTFHDGPVLGVGASESLHETALGVPGIVSAYLESTDLQDWLHCSWAHRTHRHESAALRIQCAYRVYRARCKVREMRYERRQAFLASLSAERKARQVWDLALQVQKDTTTTTSGTDSTLRALQFFINKVNAVVAKHRARKQYQQRQDAEICRYAATRIQAVYRGHRTRAFVTELRHPEIVALRKHLQQENCAKLIQTCWRRYTAQRQWWRARHAACVLQSMYRCYAARRMLAERRYQRSLEASAELTKFAVQRIERWYASFLAARNAIGRAHVAELLMLQRVCRGYQGRHGVQKERRLSRFRFAVRTIEQRRWRVMEVREAIERRAALSATNAAKRTASMRDDAAVTIQRAWRQRRVLHVC”, for which the “soluble on expression in E. coli” value is listed as “soluble”.
